Test results: publication PMC5244417, “Time-resolved neutron scattering provides new insight into protein substrate processing by a AAA+ unfoldase” (Scientific Reports, 2017)
Several values for one entry are separate records, joined by “and”; a condition that tells them apart may be missing. Equal values may be shown once.

Target: the molecule itself
Assay: SEC; Superose 6 gel filtration of purified PAN, before heating

B1: PAN (proteasome activating nucleotidase) unfoldase from Methanocaldococcus jannaschii (enzyme, UniProt Q58576 1-430, looked up)
chain: MVFEEFISTELKKEKKAFTEEFKEEKEINDNSNLKNDLLKEELQEKARIAELESRILKLELEKKELERENLQLMKENEILRRELDRMRVPPLIVGTVVDKVGERKVVVKSSTGPSFLVNVSHFVNPDDLAPGKRVCLNQQTLTVVDVLPENKDYRAKAMEVDERPNVRYEDIGGLEKQMQEIREVVELPLKHPELFEKVGIEPPKGILLYGPPGTGKTLLAKAVATETNATFIRVVGSELVKKFIGEGASLVKDIFKLAKEKAPSIIFIDEIDAIAAKRTDALTGGDREVQRTLMQLLAEMDGFDARGDVKIIGATNRPDILDPAILRPGRFDRIIEVPAPDEKGRLEILKIHTRKMNLAEDVNLEEIAKMTEGCVGAELKAICTEAGMNAIRELRDYVTMDDFRKAVEKIMEKKKVKVKEPAHLDVLYR
notes: Purified as a mixture of dodecamers and hexamers; Monodisperse hexamers were obtained after heating at 60 °C with ATP and MgCl2; Perdeuterated PAN (dPAN) was used for the SANS data on PAN; also called MjPAN; PAN complex
  stoichiometry N: 12 and 6
